How the values were obtained:
[1] = biological target: T1, Bcl-xL/Bak GD domain interaction (Homo sapiens, UniProt Q07817); assay: High through-put screening assay 2: GST-Bcl-xL binding to biotinylated Bak GD peptide on neutravidin wells, ELISA; conditions: competing peptide added, ELISA signal
T1 construct: made in house; host or cells: E. coli
Method: An assay was developed to screen for compounds that block the interaction between the Bcl-2 homologs, Bcl-xL and Bak. A synthetic peptide corresponding to the Bak GD binding domain ([…] [SEQ ID NO: 35]) was biotinylated and bound to wells coated with neutravidin. […] Peptides encompassing the GD domain from various Bcl-2 family members were tested for their ability to block GD domain-mediated interactions in this assay. Peptides tested: Bcl-w [SEQ ID NO: 39] […] ([…]), Bak [SEQ ID NO: 36]([…]), Bak-15 [SEQ ID NO: 37] ([…]), Bak-15L78A [SEQ ID NO: 38] ([…]), control (no peptide).
In a modification of the high through-put screening assay 1 described herein, wells are coated with an avidin derivative, to which a biotinylated peptide/protein is bound. A GST-fusion protein that can interact with the biotinylated peptide/protein is added in the presence or absence of test compounds. The plates are incubated and then unbound GST-fusion protein is removed by washing. The amount of GST-fusion protein specifically bound to the tethered peptide/protein is determined by ELISA using an anti-GST antibody conjugated to horse radish peroxidase. Compounds which block the interaction between the biotinylated peptide/protein and the GST-fusion protein cause a decrease in the ELISA signal.
In a specific example, an assay was developed to screen for compounds that block the interaction between the Bcl-2 homologs, Bcl-xL and Bak. A biotinylated Bak GD domain peptide (amino acid residues 71-89; N-biotinylated […] [SEQ ID NO: 35]) was bound to wells coated with neutravidin. […] Using this assay, peptides from Bcl-2 family members were identified which block the Bcl-xL/Bak GD domain interaction (FIG. 10).

[2] = biological target: T2, interaction of GST-Bcl-xL and Bak (Homo sapiens, UniProt Q07817); assay: In vitro binding assay: inhibition of GST-Bcl-xL binding to 35S-methionine-labeled Bak; conditions: peptide mixed with GST-Bcl-xL 30 minutes prior to addition to the binding assay
T2 construct: made in house; host or cells: GST-Bcl-xL: E. coli; Bak: rabbit reticulocyte lysate (Promega)
T2 sequence (Q07817 whole entry): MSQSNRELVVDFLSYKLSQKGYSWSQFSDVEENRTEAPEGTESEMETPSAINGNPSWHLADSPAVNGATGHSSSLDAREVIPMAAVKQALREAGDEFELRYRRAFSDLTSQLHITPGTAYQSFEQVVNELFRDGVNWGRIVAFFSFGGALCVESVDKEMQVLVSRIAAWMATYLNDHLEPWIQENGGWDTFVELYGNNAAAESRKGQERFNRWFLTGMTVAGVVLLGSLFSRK
Method: An in vitro binding assay as described herein in Example A.3. was used to measure the inhibition of GST-Bcl-xL binding to in vitro translated ^35Met-labeled Bak by a 20-amino acid peptide derived from the Bak GD domain (70-89; […] [SEQ ID NO: 36]). The peptide was mixed with the GST-Bcl-xL protein 30 minutes prior to addition to the binding assay. The concentration of peptide in the binding assay is indicated. Control assay contains no peptide.
The beads were removed by centrifugation and the supernatants were incubated with GST or GST-Bcl-xL (final concentration […]) at 4° C. for 1 hour. The GST fusion proteins and any interacting proteins were recovered by incubation for 1 hour with an additional […] of GSH-agarose beads. The beads were washed twice with NP-40 lysis buffer followed by two washes with NP-40 lysis buffer without NP-40. Proteins were eluted from the beads by incubation in SDS-PAGE sample buffer at 100° C. for 5 min and loaded onto 4-20% SDS-polyacrylamide gels. Following electrophoresis, gels were fixed and incubated in a fluorography enhancing solution (Amplify; Amersham). […]
GST-Bcl-xL, or GST-Bcl-2 is incubated with a labeled GD domain-containing protein in the presence of a test compound. Resulting protein complexes are captured on GSH-agarose beads and the amount of labeled interacting protein is measured. […]

T1 sequence (Q07817 whole entry, the tested form may be a part): as the sequence (Q07817 whole entry) above

TMGQVGRQLAIIGDDINRRY [Bak peptide, Bak GD domain peptide, amino acid residues 70-89]
inhibition of Bcl-xL/Bak GD domain binding [1]: concentration-dependent inhibition of binding | inhibition of the interaction of GST-Bcl-xL and 35S-methionine-labeled Bak [2]: inhibition of the interaction

From patent US7358088B2, “Peptides and compositions which modulate apoptosis” (ImmunoGen, Inc., priority 1995, dated 2008)
